In patent publication US20230270892A1, “CHELATOR COMPOSITIONS FOR RADIOMETALS AND METHODS OF USING SAME” (TRIUMF INC., priority 2020, published 2023):

Key:
[1] = tested on: mice bearing B16F10 tumors; test: in vivo; conditions: mouse
Protocol: (§1) At the day of biodistribution mice were injected in the tail vein with ~20 kBq of ^225Accrown-αMSH (range: 10.8-31.6 kBq). […] Blood was collected by cardiac puncture and a full biodistribution performed. Organs were cleaned from blood, weighed and the activity determined using a calibrated gamma counter (Packard Cobra II Auto-gamma counter, Perkin Elmer, Waltham, MA, USA) using three energy windows: 60-120 keV (window A), 180-260 keV (window B), and 400-480 keV (window C). Counting was performed after 6 hours post-sacrifice to ensure equilibrium of the ^225Ac decay chain. Counts were decay corrected from the time of sacrifice and total organ weights were used for the calculation of injected dose per gram of tissue (% ID/g). No differences were noted between the data calculated by three different windows; therefore, the biodistributions are reported using the data acquired using window A. A similar study to Example 5.1 was conducted using ^213Bi instead of ^225Ac.

[2] = in vivo; parameters: species or system mice; conditions: mouse, iv, total radioactivity
Protocol: as §1

[3] = in vivo; parameters: species or system mice; conditions: mouse, iv, total radioactivity; remark: listed apart in the source
Protocol: as §1, with “A. The biological distribution of ^225Ac-crown-TATE was examined by the inventors following” for “A. A”, “similar protocols as described above for” for “similar study to”, “Example 5.1.” for “Example 5.1 was conducted using ^213Bi instead of ^225Ac.”

CCCC[C@H](NC(=O)CN1CCC(NC(=O)CN2CCOCCN(CC(=O)O)CCN(CC(=O)O)CCOCCN(CC(=O)O)CC2)CC1)C(=O)N[C@H]1CC(=O)NCCCC[C@@H](C(N)=O)NC(=O)[C@H](Cc2c[nH]c3ccccc23)NC(=O)[C@H](CCCNC(=N)N)NC(=O)[C@@H](Cc2ccccc2)NC(=O)[C@H](Cc2c[nH]cn2)NC1=O [^213Bi-crown-αMSH, metal not drawn]
T/Blood (ratio tumor versus blood) [1]: 12.15 | T/Bone (ratio tumor versus bone) [1]: 23.41 | T/Kidney (ratio tumor versus kidney) [1]: 0.99 | T/Liver (ratio tumor versus liver) [1]: 5.44 | T/Muscle (ratio tumor versus muscle) [1]: 84.48 | tissue uptake at 1 h ([2]; Biodistribution: Bladder): 5.48 %ID/g | tissue uptake at 1 h ([2]; Biodistribution: Blood): 0.5 %ID/g | tissue uptake at 1 h ([2]; Biodistribution: Bone): 0.41 %ID/g | excreta dose per gram or mL at 1 h ([2]; Biodistribution: Feces): 0.23 %ID/g | tissue uptake at 1 h ([2]; Biodistribution: Heart): 0.09 %ID/g | tissue uptake at 1 h ([2]; Biodistribution: Kidneys): 6.02 %ID/g | tissue uptake at 1 h ([2]; Biodistribution: Lg Intestine): 0.56 %ID/g | tissue uptake at 1 h ([2]; Biodistribution: Liver): 1.09 %ID/g | tissue uptake at 1 h ([2]; Biodistribution: Lungs): 0.45 %ID/g | tissue uptake at 1 h ([2]; Biodistribution: Muscle): 0.08 %ID/g | tissue uptake at 1 h ([2]; Biodistribution: Pancreas): 0.15 %ID/g | tissue uptake at 1 h ([2]; Biodistribution: Sm Intestine): 0.34 %ID/g | tissue uptake at 1 h ([2]; Biodistribution: Spleen): 0.36 %ID/g | tissue uptake at 1 h ([2]; Biodistribution: Stomach): 0.67 %ID/g | tissue uptake at 1 h ([2]; Biodistribution: Tail): 2.56 %ID/g | tissue uptake at 1 h ([2]; Biodistribution: Thyroids): 0.74 %ID/g | tissue uptake at 1 h ([2]; Biodistribution: Tumour): 5.9 %ID/g | excreta dose per gram or mL at 1 h ([2]; Biodistribution: Urine): 93.2 %ID/g

C[C@@H](O)[C@H](NC(=O)[C@@H]1CSSC[C@H](NC(=O)[C@@H](Cc2ccccc2)NC(=O)CN2CCOCCN(CC(=O)O)CCN(CC(=O)O)CCOCCN(CC(=O)O)CC2)C(=O)N[C@@H](Cc2ccc(O)cc2)C(=O)N[C@H](Cc2c[nH]c3ccccc23)C(=O)N[C@@H](CCCCN)C(=O)N[C@@H]([C@@H](C)O)C(=O)N1)C(=O)O [^225Ac-crown-TATE, metal not drawn]
tissue uptake at 1 h ([3]; Biodistribution: Andrenals): 1.34 %ID/g | tissue uptake at 4 h ([3]; Biodistribution: Andrenals): 1.37 %ID/g | tissue uptake at 24 h ([3]; Biodistribution: Andrenals): 1.77 %ID/g | tissue uptake at 72 h ([3]; Biodistribution: Andrenals): 1.37 %ID/g | tissue uptake at 1 h ([3]; Biodistribution: Bladder): 7.09 %ID/g | tissue uptake at 4 h ([3]; Biodistribution: Bladder): 1.04 %ID/g | tissue uptake at 24 h ([3]; Biodistribution: Bladder): 0.33 %ID/g | tissue uptake at 72 h ([3]; Biodistribution: Bladder): 0.37 %ID/g | tissue uptake at 1 h ([3]; Biodistribution: Blood): 0.54 %ID/g | tissue uptake at 4 h ([3]; Biodistribution: Blood): 0.09 %ID/g | tissue uptake at 24 h ([3]; Biodistribution: Blood): 0.03 %ID/g | tissue uptake at 72 h ([3]; Biodistribution: Blood): 0.02 %ID/g | tissue uptake at 1 h ([3]; Biodistribution: Bone): 0.35 %ID/g | tissue uptake at 4 h ([3]; Biodistribution: Bone): 0.78 %ID/g | tissue uptake at 24 h ([3]; Biodistribution: Bone): 0.38 %ID/g | tissue uptake at 72 h ([3]; Biodistribution: Bone): 0.78 %ID/g | tissue uptake at 1 h ([3]; Biodistribution: Brain): 0.03 %ID/g | tissue uptake at 4 h ([3]; Biodistribution: Brain): 0.01 %ID/g | tissue uptake at 24 h ([3]; Biodistribution: Brain): 0.01 %ID/g | tissue uptake at 72 h ([3]; Biodistribution: Brain): 0.01 %ID/g | excreta dose per gram or mL at 1 h ([3]; Biodistribution: Feces): 0.22 %ID/g | excreta dose per gram or mL at 4 h ([3]; Biodistribution: Feces): 0.27 %ID/g | excreta dose per gram or mL at 24 h ([3]; Biodistribution: Feces): 0.53 %ID/g | excreta dose per gram or mL at 72 h ([3]; Biodistribution: Feces): 0.26 %ID/g | tissue uptake at 1 h ([3]; Biodistribution: Gallbladder): 0.68 %ID/g | tissue uptake at 4 h ([3]; Biodistribution: Gallbladder): 0.52 %ID/g | tissue uptake at 24 h ([3]; Biodistribution: Gallbladder): 0.99 %ID/g | tissue uptake at 72 h ([3]; Biodistribution: Gallbladder): 1.25 %ID/g | tissue uptake at 1 h ([3]; Biodistribution: Heart): 0.32 %ID/g | tissue uptake at 4 h ([3]; Biodistribution: Heart): 0.15 %ID/g | tissue uptake at 24 h ([3]; Biodistribution: Heart): 0.18 %ID/g | tissue uptake at 72 h ([3]; Biodistribution: Heart): 0.19 %ID/g | tissue uptake at 1 h ([3]; Biodistribution: Kidneys): 20 %ID/g | tissue uptake at 4 h ([3]; Biodistribution: Kidneys): 20.7 %ID/g | tissue uptake at 24 h ([3]; Biodistribution: Kidneys): 11.5 %ID/g | tissue uptake at 72 h ([3]; Biodistribution: Kidneys): 7.09 %ID/g | tissue uptake at 1 h ([3]; Biodistribution: Lg Intestine): 1.55 %ID/g | tissue uptake at 4 h ([3]; Biodistribution: Lg Intestine): 1.58 %ID/g | tissue uptake at 24 h ([3]; Biodistribution: Lg Intestine): 1.31 %ID/g | tissue uptake at 72 h ([3]; Biodistribution: Lg Intestine): 1.02 %ID/g | tissue uptake at 1 h ([3]; Biodistribution: Liver): 1.38 %ID/g | tissue uptake at 4 h ([3]; Biodistribution: Liver): 1 %ID/g | tissue uptake at 24 h ([3]; Biodistribution: Liver): 1.77 %ID/g | tissue uptake at 72 h ([3]; Biodistribution: Liver): 2.43 %ID/g | tissue uptake at 1 h ([3]; Biodistribution: Lungs): 3.4 %ID/g | tissue uptake at 4 h ([3]; Biodistribution: Lungs): 3.37 %ID/g | tissue uptake at 24 h ([3]; Biodistribution: Lungs): 2.31 %ID/g | tissue uptake at 72 h ([3]; Biodistribution: Lungs): 2 %ID/g | tissue uptake at 1 h ([3]; Biodistribution: Muscle): 0.1 %ID/g | tissue uptake at 4 h ([3]; Biodistribution: Muscle): 0.02 %ID/g | tissue uptake at 24 h ([3]; Biodistribution: Muscle): 0.02 %ID/g | tissue uptake at 72 h ([3]; Biodistribution: Muscle): 0.04 %ID/g | tissue uptake at 1 h ([3]; Biodistribution: Pancreas): 4.39 %ID/g | tissue uptake at 4 h ([3]; Biodistribution: Pancreas): 3.24 %ID/g | tissue uptake at 24 h ([3]; Biodistribution: Pancreas): 1.22 %ID/g | tissue uptake at 72 h ([3]; Biodistribution: Pancreas): 1.07 %ID/g | tissue uptake at 1 h ([3]; Biodistribution: Sm Intestine): 0.88 %ID/g | tissue uptake at 4 h ([3]; Biodistribution: Sm Intestine): 0.74 %ID/g | tissue uptake at 24 h ([3]; Biodistribution: Sm Intestine): 0.51 %ID/g | tissue uptake at 72 h ([3]; Biodistribution: Sm Intestine): 0.49 %ID/g | tissue uptake at 1 h ([3]; Biodistribution: Spleen): 0.48 %ID/g | tissue uptake at 4 h ([3]; Biodistribution: Spleen): 0.36 %ID/g | tissue uptake at 24 h ([3]; Biodistribution: Spleen): 0.23 %ID/g | tissue uptake at 72 h ([3]; Biodistribution: Spleen): 0.35 %ID/g | tissue uptake at 1 h ([3]; Biodistribution: Stomach): 5.04 %ID/g | tissue uptake at 4 h ([3]; Biodistribution: Stomach): 3.7 %ID/g | tissue uptake at 24 h ([3]; Biodistribution: Stomach): 2.75 %ID/g | tissue uptake at 72 h ([3]; Biodistribution: Stomach): 2.25 %ID/g | tissue uptake at 1 h ([3]; Biodistribution: Tail): 1.56 %ID/g | tissue uptake at 4 h ([3]; Biodistribution: Tail): 0.42 %ID/g | tissue uptake at 24 h ([3]; Biodistribution: Tail): 0.35 %ID/g | tissue uptake at 72 h ([3]; Biodistribution: Tail): 0.34 %ID/g | tissue uptake at 1 h ([3]; Biodistribution: Tumour): 5.86 %ID/g | tissue uptake at 4 h ([3]; Biodistribution: Tumour): 5.15 %ID/g | tissue uptake at 24 h ([3]; Biodistribution: Tumour): 5.7 %ID/g | tissue uptake at 72 h ([3]; Biodistribution: Tumour): 4.97 %ID/g | excreta dose per gram or mL at 1 h ([3]; Biodistribution: Urine): 108 %ID/g | excreta dose per gram or mL at 4 h ([3]; Biodistribution: Urine): 13.2 %ID/g | excreta dose per gram or mL at 24 h ([3]; Biodistribution: Urine): 0.87 %ID/g | excreta dose per gram or mL at 72 h ([3]; Biodistribution: Urine): 0.2 %ID/g
